The subject of the assay is S. cerevisiae BY4741 transformed with pESC expressing a reductase candidate gene. The experiment in a line: Screening of reductase candidates for reduction of 3-methyl-2-butenol to 3-methyl-butanol. The format is cell-based, Saccharomyces cerevisiae. The settings on record: 3-methyl-2-butenol 1 g/l; relative to controls; FIGS. 4 and 5. Here is the method: To identify enzymes with the capability to catalyze the reduction 3-methyl-2-butenol to 3-methyl-butanol the following assay system was employed. 5 ml of synthetic defined medium lacking leucine with 1.8% galactose and 0.2% glucose was inoculated with an overnight culture of S. cerevisiae BY4741 freshly transformed with a vector (pESC) expressing a reductase candidate gene to achieve a final absorbance of 0.5 at 600 nm (A600). The cultures were grown at 30° C. at 200 r.p.m. After 48 hours, 3-methyl-2-butenol (1 g/l) was added to the culture.
Cultures were sampled for isopentanol production after addition of 3-methyl-2-butenol as described in Example 3.

The results in this text go back to patent US7985567B2, “Host cells and methods for producing 3-methyl-2-buten-1-ol, 3-methyl-3-buten-1-ol, and 3-methyl-butan-1-ol” (The Regents of the University of California, priority 2007, dated 2011).

B1: OYE2: Old yellow enzyme family reductase of S. cerevisiae, gene locus YHR179w (protein, UniProt Q03558 2-400, looked up)
NADPH dehydrogenase 2: PFVKDFKPQALGDTNLFKPIKIGNNELLHRAVIPPLTRMRAQHPGNIPNRDWAVEYYAQRAQRPGTLIITEGTFPSPQSGGYDNAPGIWSEEQIKEWTKIFKAIHENKSFAWVQLWVLGWAAFPDTLARDGLRYDSASDNVYMNAEQEEKAKKANNPQHSITKDEIKQYVKEYVQAAKNSIAAGADGVEIHSANGYLLNQFLDPHSNNRTDEYGGSIENRARFTLEVVDAVVDAIGPEKVGLRLSPYGVFNSMSGGAETGIVAQYAYVLGELERRAKAGKRLAFVHLVEPRVTNPFLTEGEGEYNGGSNKFAYSIWKGPIIRAGNFALHPEVVREEVKDPRTLIGYGRFFISNPDLVDRLEKGLPLNKYDRDTFYKMSAEGYIDYPTYEEALKLGWDKN
Consider B1, for which the “isopentanol production from 3-methyl-2-butenol by yeast over-expressing the reductase” value is given as “significant increase in isopentanol production”.

B2: OYE3: Old yellow enzyme family reductase of S. cerevisiae, gene locus YPL171c (protein, UniProt P41816 2-400, looked up)
NADPH dehydrogenase 3: PFVKGFEPISLRDTNLFEPIKIGNTQLAHRAVMPPLTRMRATHPGNIPNKEWAAVYYGQRAQRPGTMIITEGTFISPQAGGYDNAPGIWSDEQVAEWKNIFLAIHDCQSFAWVQLWSLGWASFPDVLARDGLRYDCASDRVYMNATLQEKAKDANNLEHSLTKDDIKQYIKDYIHAAKNSIAAGADGVEIHSANGYLLNQFLDPHSNKRTDEYGGTIENRARFTLEVVDALIETIGPERVGLRLSPYGTFNSMSGGAEPGIIAQYSYVLGELEKRAKAGKRLAFVHLVEPRVTDPSLVEGEGEYSEGTNDFAYSIWKGPIIRAGNYALHPEVVREQVKDPRTLIGYGRFFISNPDLVYRLEEGLPLNKYDRSTFYTMSAEGYTDYPTYEEAVDLGWNKN
Take B2: the “isopentanol production from 3-methyl-2-butenol by yeast over-expressing the reductase” value is listed as “significant increase in isopentanol production”.
